Experimental data: IntAct's records for PubMed 25910212

B1: PiggyBac transposable element-derived protein 1 (Homo sapiens), Q96JS3 (parent)
chain: MYEALPGPAPENEDGLVKVKEEDPTWEQVCNSQEGSSHTQEICRLRFRHFCYQEAHGPQEALAQLRELCHQWLRPEMHTKEQIMELLVLEQFLTILPKELQPCVKTYPLESGEEAVTVLENLETGSGDTGQQASVYIQGQDMHPMVAEYQGVSLECQSLQLLPGITTLKCEPPQRPQGNPQEVSGPVPHGSAHLQEKNPRDKAVVPVFNPVRSQTLVKTEEETAQAVAAEKWSHLSLTRRNLCGNSAQETVMSLSPMTEEIVTKDRLFKAKQETSEEMEQSGEASGKPNRECAPQIPCSTPIATERTVAHLNTLKDRHPGDLWARMHISSLEYAAGDITRKGRKKDKARVSELLQGLSFSGDSDVEKDNEPEIQPAQKKLKVSCFPEKSWTKRDIKPNFPSWSALDSGLLNLKSEKLNPVELFELFFDDETFNLIVNETNNYASQKNVSLEVTVQEMRCVFGVLLLSGFMRHPRREMYWEVSDTDQNLVRDAIRRDRFELIFSNLHFADNGHLDQKDKFTKLRPLIKQMNKNFLLYAPLEEYYCFDKSMCECFDSDQFLNGKPIRIGYKIWCGTTTQGYLVWFEPYQEESTMKVDEDPDLGLGGNLVMNFADVLLERGQYPYHLCFDSFFTSVKLLSALKKKGVRATGTIRENRTEKCPLMNVEHMKKMKRGYFDFRIEENNEIILCRWYGDGIISLCSNAVGIEPVNEVSCCDADNEEIPQISQPSIVKVYDECKEGVAKMDQIISKYRVRIRSKKWYSILVSYMIDVAMNNAWQLHRACNPGASLDPLDFRRFVAHFYLEHNAHLSD
B2: Cyclin-dependent kinase 4 inhibitor C (Homo sapiens), P42773 (parent)
chain: MAEPWGNELASAAARGDLEQLTSLLQNNVNVNAQNGFGRTALQVMKLGNPEIARRLLLRGANPDLKDRTGFAVIHDAARAGFLDTLQTLLEFQADVNIEDNEGNLPLHLAAKEGHLRVVEFLVKHTASNVGHRNHKGDTACDLARLYGRNEVVSLMQANGAGGATNLQ
partner: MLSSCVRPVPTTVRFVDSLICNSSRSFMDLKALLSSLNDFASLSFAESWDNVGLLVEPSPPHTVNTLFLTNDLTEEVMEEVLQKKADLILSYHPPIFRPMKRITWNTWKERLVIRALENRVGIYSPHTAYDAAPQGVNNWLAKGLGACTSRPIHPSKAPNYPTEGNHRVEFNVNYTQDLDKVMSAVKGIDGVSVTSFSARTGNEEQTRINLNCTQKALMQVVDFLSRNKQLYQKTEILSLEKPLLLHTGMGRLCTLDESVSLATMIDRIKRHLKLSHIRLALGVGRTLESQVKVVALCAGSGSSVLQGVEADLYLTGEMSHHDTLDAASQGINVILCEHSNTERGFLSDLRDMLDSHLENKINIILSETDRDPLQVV
B3: ATP synthase mitochondrial F1 complex assembly factor 2 (Homo sapiens), Q8N5M1 (parent)
chain: MWRSCLRLRDGGRRLLNRPAGGPSASMSPGPTIPSPARAYAPPTERKRFYQNVSITQGEGGFEINLDHRKLKTPQAKLFTVPSEALAIAVATEWDSQQDTIKYYTMHLTTLCNTSLDNPTQRNKDQLIRAAVKFLDTDTICYRVEEPETLVELQRNEWDPIIEWAEKRYGVEISSSTSIMGPSIPAKTREVLVSHLASYNTWALQGIEFVAAQLKSMVLTLGLIDLRLTVEQAVLLSRLEEEYQIQKWGNIEWAHDYELQELRARTAAGTLFIHLCSESTTVKHKLLKE
partner: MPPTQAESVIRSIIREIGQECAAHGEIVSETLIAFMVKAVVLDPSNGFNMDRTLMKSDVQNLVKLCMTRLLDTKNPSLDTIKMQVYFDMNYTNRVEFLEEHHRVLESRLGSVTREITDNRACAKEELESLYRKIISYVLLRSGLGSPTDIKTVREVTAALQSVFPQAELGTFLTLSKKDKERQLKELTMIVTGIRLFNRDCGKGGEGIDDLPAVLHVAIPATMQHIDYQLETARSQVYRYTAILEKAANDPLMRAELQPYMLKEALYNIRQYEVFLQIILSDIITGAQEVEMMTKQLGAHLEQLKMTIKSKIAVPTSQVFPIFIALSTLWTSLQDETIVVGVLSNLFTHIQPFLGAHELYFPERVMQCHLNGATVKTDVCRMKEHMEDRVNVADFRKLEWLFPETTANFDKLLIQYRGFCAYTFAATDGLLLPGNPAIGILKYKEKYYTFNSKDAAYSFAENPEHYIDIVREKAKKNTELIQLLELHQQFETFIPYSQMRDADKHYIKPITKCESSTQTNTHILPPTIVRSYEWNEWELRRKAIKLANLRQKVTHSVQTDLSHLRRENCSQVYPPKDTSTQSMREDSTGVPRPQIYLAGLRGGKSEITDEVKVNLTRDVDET
B4: Interferon-inducible double-stranded RNA-dependent protein kinase activator A (Homo sapiens), O75569 (parent)
chain: MSQSRHRAEAPPLEREDSGTFSLGKMITAKPGKTPIQVLHEYGMKTKNIPVYECERSDVQIHVPTFTFRVTVGDITCTGEGTSKKLAKHRAAEAAINILKANASICFAVPDPLMPDPSKQPKNQLNPIGSLQELAIHHGWRLPEYTLSQEGGPAHKREYTTICRLESFMETGKGASKKQAKRNAAEKFLAKFSNISPENHISLTNVVGHSLGCTWHSLRNSPGEKINLLKRSLLSIPNTDYIQLLSEIAKEQGFNITYLDIDELSANGQYQCLAELSTSPITVCHGSGISCGNAQSDAAHNALQYLKIIAERK
partner: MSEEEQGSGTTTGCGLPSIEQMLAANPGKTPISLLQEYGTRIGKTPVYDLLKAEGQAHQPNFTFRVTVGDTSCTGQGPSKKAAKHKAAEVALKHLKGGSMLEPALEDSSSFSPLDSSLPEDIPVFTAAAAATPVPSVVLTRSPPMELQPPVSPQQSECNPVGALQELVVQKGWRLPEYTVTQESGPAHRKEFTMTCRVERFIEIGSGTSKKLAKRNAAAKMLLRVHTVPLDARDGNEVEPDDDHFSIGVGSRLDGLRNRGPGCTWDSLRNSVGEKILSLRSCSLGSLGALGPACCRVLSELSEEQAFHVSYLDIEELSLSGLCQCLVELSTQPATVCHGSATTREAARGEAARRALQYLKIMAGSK
B5: H/ACA ribonucleoprotein complex subunit 3 (Homo sapiens), Q9NPE3 (parent)
chain: MFLQYYLNEQGDRVYTLKKFDPMGQQTCSAHPARFSPDDKYSRHRITIKKRFKVLMTQQPRPVL
partner: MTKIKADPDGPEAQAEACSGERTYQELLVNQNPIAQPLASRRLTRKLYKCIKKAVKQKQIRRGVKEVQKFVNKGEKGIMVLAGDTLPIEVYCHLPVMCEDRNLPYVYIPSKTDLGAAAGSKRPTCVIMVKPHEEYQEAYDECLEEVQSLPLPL
B6: EF-hand domain-containing protein 1 (Homo sapiens), Q5JVL4 (parent)
chain: MVSNPVHGLPFLPGTSFKDSTKTAFHRSQTLSYRNGYAIVRRPTVGIGGDRLQFNQLSQAELDELASKAPVLTYGQPKQAPPADFIPAHVAFDKKVLKFDAYFQEDVPMSTEEQYRIRQVNIYYYLEDDSMSVIEPVVENSGILQGKLIKRQRLAKNDRGDHYHWKDLNRGINITIYGKTFRVVDCDQFTQVFLESQGIELNPPEKMALDPYTELRKQPLRKYVTPSDFDQLKQFLTFDKQVLRFYAIWDDTDSMYGECRTYIIHYYLMDDTVEIREVHERNDGRDPFPLLMNRQRVPKVLVENAKNFPQCVLEISDQEVLEWYTAKDFIVGKSLTILGRTFFIYDCDPFTRRYYKEKFGITDLPRIDVSKREPPPVKQELPPYNGFGLVEDSAQNCFALIPKAPKKDVIKMLVNDNKVLRYLAVLESPIPEDKDRRFVFSYFLATDMISIFEPPVRNSGIIGGKYLGRTKVVKPYSTVDNPVYYGPSDFFIGAVIEVFGHRFIILDTDEYVLKYMESNAAQYSPEALASIQNHVRKREAPAPEAESKQTEKDPGVQELEALIDTIQKQLKDHSCKDNIREAFQIYDKEASGYVDRDMFFKICESLNVPVDDSLVKELIRMCSHGEGKINYYNFVRAFSN
partner: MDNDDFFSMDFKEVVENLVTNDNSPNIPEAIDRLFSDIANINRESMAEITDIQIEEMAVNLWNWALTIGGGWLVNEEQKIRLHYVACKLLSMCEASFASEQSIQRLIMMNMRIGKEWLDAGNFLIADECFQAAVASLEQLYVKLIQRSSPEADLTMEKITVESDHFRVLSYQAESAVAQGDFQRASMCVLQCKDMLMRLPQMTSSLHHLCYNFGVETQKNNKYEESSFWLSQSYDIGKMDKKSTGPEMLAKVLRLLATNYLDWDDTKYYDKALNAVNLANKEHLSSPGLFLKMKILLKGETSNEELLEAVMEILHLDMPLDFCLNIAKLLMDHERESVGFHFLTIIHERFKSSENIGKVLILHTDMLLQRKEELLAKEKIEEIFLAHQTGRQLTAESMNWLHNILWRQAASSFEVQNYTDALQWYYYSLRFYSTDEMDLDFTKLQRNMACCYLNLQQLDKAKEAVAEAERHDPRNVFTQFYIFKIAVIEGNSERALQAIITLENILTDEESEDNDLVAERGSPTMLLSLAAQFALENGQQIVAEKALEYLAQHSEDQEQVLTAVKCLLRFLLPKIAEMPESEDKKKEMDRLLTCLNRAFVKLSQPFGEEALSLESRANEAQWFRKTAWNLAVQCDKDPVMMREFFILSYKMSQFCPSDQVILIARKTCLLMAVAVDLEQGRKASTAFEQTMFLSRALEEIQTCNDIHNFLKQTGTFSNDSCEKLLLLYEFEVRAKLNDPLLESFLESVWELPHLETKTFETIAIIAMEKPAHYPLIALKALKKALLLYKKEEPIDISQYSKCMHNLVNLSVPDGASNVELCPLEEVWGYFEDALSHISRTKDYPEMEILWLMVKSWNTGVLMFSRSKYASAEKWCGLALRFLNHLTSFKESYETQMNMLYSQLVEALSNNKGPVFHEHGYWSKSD

Variants of: B1
Conditions: with NR4A1, P22736-2
Chain of NR4A1, P22736-2 (P22736 other isoform, or with tags, fused parts or gaps): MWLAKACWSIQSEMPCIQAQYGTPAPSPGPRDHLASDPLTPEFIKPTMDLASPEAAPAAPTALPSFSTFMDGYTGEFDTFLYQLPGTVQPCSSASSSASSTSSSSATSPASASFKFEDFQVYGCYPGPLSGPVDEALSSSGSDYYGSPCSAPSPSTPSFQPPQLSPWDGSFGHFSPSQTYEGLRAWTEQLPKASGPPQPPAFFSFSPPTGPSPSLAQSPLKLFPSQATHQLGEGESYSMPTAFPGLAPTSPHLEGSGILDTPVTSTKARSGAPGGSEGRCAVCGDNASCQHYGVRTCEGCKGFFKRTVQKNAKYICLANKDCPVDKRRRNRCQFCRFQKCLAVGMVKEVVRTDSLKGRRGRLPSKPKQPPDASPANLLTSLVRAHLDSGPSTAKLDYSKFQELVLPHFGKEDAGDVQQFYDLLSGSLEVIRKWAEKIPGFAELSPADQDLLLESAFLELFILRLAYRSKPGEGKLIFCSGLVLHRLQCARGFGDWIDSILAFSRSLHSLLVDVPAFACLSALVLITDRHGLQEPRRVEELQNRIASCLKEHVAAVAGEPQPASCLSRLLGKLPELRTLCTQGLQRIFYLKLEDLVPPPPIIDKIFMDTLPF

Row | effect of a mutation on the interaction | Variant
1 | with no effect | P256L
2 | with no effect | I678V
3 | with no effect | Q248E

Variants of: B1
Conditions: with znf24_human ZNF24, P17028
Chain of znf24_human ZNF24, P17028 (P17028 whole entry): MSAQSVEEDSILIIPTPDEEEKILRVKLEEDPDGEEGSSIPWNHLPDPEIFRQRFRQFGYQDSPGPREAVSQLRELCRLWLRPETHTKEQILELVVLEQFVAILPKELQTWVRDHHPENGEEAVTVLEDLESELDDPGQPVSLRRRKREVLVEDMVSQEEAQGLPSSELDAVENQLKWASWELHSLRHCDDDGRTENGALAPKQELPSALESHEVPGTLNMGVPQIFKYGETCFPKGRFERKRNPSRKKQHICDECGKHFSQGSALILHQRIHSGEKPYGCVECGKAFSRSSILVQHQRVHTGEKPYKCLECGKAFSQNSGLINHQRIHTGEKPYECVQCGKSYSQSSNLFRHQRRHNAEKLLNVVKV

Row | effect of a mutation on the interaction | Variant
4 | with no effect | P256L
5 | with no effect | I678V
6 | with no effect | Q248E

Variants of: B1
Conditions: with zn496_human ZNF496, Q96IT1
Chain of zn496_human ZNF496, Q96IT1 (Q96IT1 whole entry): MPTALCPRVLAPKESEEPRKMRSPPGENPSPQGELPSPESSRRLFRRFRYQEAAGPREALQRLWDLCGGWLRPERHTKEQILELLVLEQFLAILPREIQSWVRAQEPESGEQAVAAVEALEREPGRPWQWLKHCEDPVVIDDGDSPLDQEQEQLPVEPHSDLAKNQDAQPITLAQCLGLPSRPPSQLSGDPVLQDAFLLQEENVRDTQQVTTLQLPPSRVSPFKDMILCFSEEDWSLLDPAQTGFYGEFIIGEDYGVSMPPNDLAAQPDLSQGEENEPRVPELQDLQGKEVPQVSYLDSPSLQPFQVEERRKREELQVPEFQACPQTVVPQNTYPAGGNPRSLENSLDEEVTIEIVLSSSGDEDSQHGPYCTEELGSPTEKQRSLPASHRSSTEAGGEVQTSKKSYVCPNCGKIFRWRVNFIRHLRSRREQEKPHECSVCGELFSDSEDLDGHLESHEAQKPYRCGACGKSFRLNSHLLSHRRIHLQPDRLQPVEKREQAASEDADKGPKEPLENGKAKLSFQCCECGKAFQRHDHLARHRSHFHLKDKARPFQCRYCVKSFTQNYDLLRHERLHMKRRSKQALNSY

Row | effect of a mutation on the interaction | Variant
7 | with no effect | P256L
8 | with no effect | I678V
9 | with no effect | Q248E

Variants of: B1
Conditions: with zsc22_human ZSCAN22, P10073
Chain of zsc22_human ZSCAN22, P10073 (P10073 whole entry): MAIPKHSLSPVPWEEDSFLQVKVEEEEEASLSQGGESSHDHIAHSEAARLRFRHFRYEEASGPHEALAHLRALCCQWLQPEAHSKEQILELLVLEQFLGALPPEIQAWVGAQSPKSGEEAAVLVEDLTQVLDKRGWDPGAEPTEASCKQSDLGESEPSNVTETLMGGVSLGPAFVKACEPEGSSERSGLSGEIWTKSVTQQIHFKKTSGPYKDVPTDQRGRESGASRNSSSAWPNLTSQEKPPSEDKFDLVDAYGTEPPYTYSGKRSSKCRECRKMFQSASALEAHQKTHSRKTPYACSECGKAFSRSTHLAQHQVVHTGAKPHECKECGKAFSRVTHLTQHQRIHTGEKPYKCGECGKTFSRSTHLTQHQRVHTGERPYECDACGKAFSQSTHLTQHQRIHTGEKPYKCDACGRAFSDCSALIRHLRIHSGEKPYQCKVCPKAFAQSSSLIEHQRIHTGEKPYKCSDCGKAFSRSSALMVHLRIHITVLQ

Row | effect of a mutation on the interaction | Variant
10 | with no effect | P256L
11 | with no effect | I678V
12 | with no effect | Q248E

Variants of: B1
Conditions: with meox2_human MEOX2, P50222
Chain of meox2_human MEOX2, P50222 (P50222 whole entry): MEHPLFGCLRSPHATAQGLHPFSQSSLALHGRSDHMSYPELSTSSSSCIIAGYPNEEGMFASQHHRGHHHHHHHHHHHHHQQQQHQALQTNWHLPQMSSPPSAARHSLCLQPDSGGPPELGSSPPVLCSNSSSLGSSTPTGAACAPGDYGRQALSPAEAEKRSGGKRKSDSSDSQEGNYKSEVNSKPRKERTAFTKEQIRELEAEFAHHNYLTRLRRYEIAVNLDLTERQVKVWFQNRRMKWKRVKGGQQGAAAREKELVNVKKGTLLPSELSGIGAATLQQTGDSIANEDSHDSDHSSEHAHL

Row | effect of a mutation on the interaction | Variant
13 | with no effect | P256L
14 | with no effect | I678V
15 | with no effect | Q248E

Variants of: B2
Conditions: with nif3l_human NIF3L1, Q9GZT8

Row | effect of a mutation on the interaction | Variant
16 | disrupting interaction strength | V31L

Variants of: B3
Conditions: with cf206_human CFAP206, Q8IYR0

Row | effect of a mutation on the interaction | Variant
17 | disrupting interaction strength | W94R

Variants of: B4
Conditions: with trbp2_human TARBP2, Q15633

Row | effect of a mutation on the interaction | Variant
18 | with no effect | P222L

Variants of: B5
Conditions: with nhp2_human NHP2, Q9NX24

Row | effect of a mutation on the interaction | Variant
19 | with no effect | R34W

Variants of: B6
Conditions: with TEX11, Q8IYF3-3

Row | effect of a mutation on the interaction | Variant
20 | disrupting interaction strength | R221H
21 | with no effect | T508R
22 | with no effect | R159W
23 | with no effect | P77T
